Data taken from PMC4118376 (Sensors (Basel, Switzerland), 2014).
Positions count from the first letter of the chain named.

B1: sdAb H9-B11 (VHH)
VHH: DVQLQASGGGLVQVGGSLRLSCAASGSTFRIGYMGWYRQAPGKPRELVARISSGGTTDYLDFVKDRFTISRDNAKNTVYLQMSSLKPEDTAVYYCNVVNYRANEYWGQGTQVTVSS
notes: source: E. coli, periplasm, purified (IMAC, size exclusion chromatography)
B2: sdAb H9-D7 (VHH)
VHH: B1 VHH with G35S, Y37H, P44S, F62S, A74T, S83N, K86E, N99D, T113A
notes: source: E. coli Rosetta (DE3), periplasm, purified (IMAC, size exclusion chromatography)
B3: sdAb H9-A1 (VHH)
VHH: EVQLQASGGGLVQPGGSLRLSCAASGSAVSIGFMAWYRQAPGKQRELVARISSSGLPDYADTVKGRFTISRDNTRKTVSLQMNSLNPDDTAVYYCNARLYDGSSAWGQGTQVTVSS
notes: as for B2
B4: sdAb D9 (VHH)
VHH: EVQLQASGGGLAQAGDSLRLSCAASIRTFGSYAMGWFRQAPGKEREFVAAISWSGGDTYADSAKGRFTISRDNAKNMMYLQMNSLAPEDTAVYFCAIVEAKYYISKDARDYGYWGQGTQVFVSS
notes: as for B2
B5: sdAb B12 (VHH)
VHH: EVQLQASGGGLVQAGGPLRLTCAVSGPTFGSYALGWFRQAPGKEREFVAAVSWSGGDTYADSVKGRFIISRDNAKNTVYLQMNNLEPEDTAVYSCARMQDRYYISKDAKDYGYWGQGTQVTVSS
notes: as for B2
B6: sdAb H9 (VHH)
VHH: B5 VHH with P17S, G117E
notes: as for B2
B7: sdAb B1 (VHH)
VHH: B5 VHH with P17S, S62T, V63A, T121I
notes: as for B2
B8: sdAb A10 (VHH)
VHH: EVQLQASGGGLVRAGGTLRLTCDATTPTFGSYAMGWFRQAPGKEREFVSAISWSGGDTYADSVKGRFTISRDNTRNRVYLQMNDLEPDDTAIYTCARTTARYYISKDAKDYDYWGQGTQVTVSS
notes: as for B2
B9: sdAb E2 (VHH)
VHH: EVQLQASGGGLVQAGGSLRLTCAASGRTFGSYAMGWFRQAPGKEREFVAAISWSGGDTYADSVKGRFTISRDNAKNTVYLQMNSLAPEDTAVYSCAAVGARYYISKDAKDYGYWGQGTQVTVSS
notes: as for B2
B10: sdAb F1 (VHH)
VHH: B9 VHH with E1D, G26L, R27H, A60S, A86E, G99E, K106T
notes: as for B2
B11: sdAb H12 (VHH)
VHH: EVQLQASGGGLVLTGGSLRLSCAASGRNFSNYAMAWFRQAPGKEREFVGTISWYTNTNYANSVKGRFSISRDNAKNTVYLQMSSLKPEDTAVYYCAAAPAMYYNPYTRESEYGYWGQGTQVTVSS
notes: as for B2
B12: sdAb E9 (VHH)
VHH: B11 VHH with L13Q, T14A, N28D, N31D, N61D, M101R, T107K
notes: as for B2
B13: sdAb H9-H11 (VHH)
VHH: DVQLQASGGGLVQPGGSLRLSCAASESAVRIGFMGWHRQAPGNQRERVAQISSTGLPTYADAVKGRFTISRDNTKNTVYLQMNSLNADDTAVYFCNARLYDGTSVWGQGTQVTVSS
notes: as for B1
B14: sdAb S222-A2 (VHH)
VHH: B13 VHH with Q13E, E26G, R30S, N43K, L56I, T58N, A62T, V78M, V105A
notes: as for B1

Biological target: staphylococcal enterotoxin B (Staphylococcus aureus (strain not …, UniProt P01552))
Experiment: SPR
Settings: both partners purified

Sequence of staphylococcal enterotoxin B (Staphylococcus aureus (P01552 28-266): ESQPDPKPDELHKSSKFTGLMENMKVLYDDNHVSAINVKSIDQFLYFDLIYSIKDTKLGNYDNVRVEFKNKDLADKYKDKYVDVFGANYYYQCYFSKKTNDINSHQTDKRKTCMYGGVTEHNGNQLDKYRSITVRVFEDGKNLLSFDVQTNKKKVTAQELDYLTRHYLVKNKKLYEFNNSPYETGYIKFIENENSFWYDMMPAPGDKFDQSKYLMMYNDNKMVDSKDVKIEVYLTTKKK

| Binder | Kd | koff | kon |
| --- | --- | --- | --- |
| B1 | 3.32 nM | 0.000512 s⁻¹ | 154000 M⁻¹ s⁻¹ |
| B2 | 1.1 nM | 0.000192 s⁻¹ | 174000 M⁻¹ s⁻¹ |
| B3 | 1.25 nM | 0.00227 s⁻¹ | 1.8e+06 M⁻¹ s⁻¹ |
| B4 | 0.111 nM | 0.000277 s⁻¹ | 2.49e+06 M⁻¹ s⁻¹ |
| B5 | 0.232 nM | 0.000321 s⁻¹ | 1.39e+06 M⁻¹ s⁻¹ |
| B6 | 0.09 nM | 0.000318 s⁻¹ | 3.53e+06 M⁻¹ s⁻¹ |
| B7 | 0.2 nM | 0.00039 s⁻¹ | 1.95e+06 M⁻¹ s⁻¹ |
| B8 | 0.158 nM | 0.000277 s⁻¹ | 1.76e+06 M⁻¹ s⁻¹ |
| B9 | 0.273 nM | 0.00351 s⁻¹ | 1.28e+07 M⁻¹ s⁻¹ |
| B10 | 0.65 nM | 0.00042 s⁻¹ | 646000 M⁻¹ s⁻¹ |
| B11 | 0.272 nM | 0.000607 s⁻¹ | 2.23e+06 M⁻¹ s⁻¹ |
| B12 | 0.533 nM | 0.000589 s⁻¹ | 1.11e+06 M⁻¹ s⁻¹ |
| B13 | 1.56 nM | 0.000755 s⁻¹ | 485000 M⁻¹ s⁻¹ |
| B14 | 4.16 nM | 0.00506 s⁻¹ | 1.22e+06 M⁻¹ s⁻¹ |
